From the supplement of paper PMC10126150
± gives the standard deviation of the averaged measurements.

tested on: ATP; experiment: switch fluorescence ratio, 500 uM ATP over buffer (Cy3 cluster intensity, sum of 5 cycles each) (fold (ratio)); higher = stronger signal-on switching upon ATP binding; sequences stand for … in TCGTCGGCAGCGTCAGATGTGTATAAGAGACAGTTTTTTTTTTTTTTTTTTTTTTTTT…TC; conditions: aptamer strand: ATP DNA aptamer (quencher-CACCTGGGGGAGTATTGCGGAGGAAGG + anchor), 100 nM annealed; ATP concentration: 500 uM
Outline: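 Cy3-labelled switching-strand clusters on a modified Illumina MiSeq flow-cell were annealed to 100 nM quencher-labelled ATP aptamer, imaged in selection buffer, then imaged after 15 min with 500 uM ATP at 22 °C. Five buffer/ATP cycles ran, with NaOH stripping and re-annealing between them. The fluorescence ratio is summed target-cycle over summed buffer-cycle Cy3 intensity per cluster, averaged per switch-domain sequence. Clusters outside 100-1000 RFU were excluded.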
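Note: ATP exposure 15 min at 22 °C before imaging.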

In order of falling switch fluorescence ratio:
1. TGACGACCGC  3.33 ± 0.48
2. CGACGCGGTA  3.14 ± 0.059
3. CGAATCCAGG  2.46 ± 0.062
4. GACGCATATG  2.03 ± 0.098
5. TTCTTGCTAC  1.78 ± 0.036
6. TAGGCAGGGT  1.56 ± 0.78
7. TAGGCCTTAC  1.43 ± 0.54
8. ACAGTACTTG  1.292 ± 0.0098
9. TACGGGCGGG  1.24 ± 0.17
10. GACGTGACGA  1.15 ± 0.019
11. AAGCAGGGGC  1.14 ± 0.16
12. TCAGGATGGC  1.13 ± 0.092
13. GGAGTGGGAC  1.12 ± 0.14
14. ACTCAGGTCC  1.077 ± 0.0054
15. CTTGCATTGA  1.08 ± 0.071
16. AATGGCCGCG  1.08 ± 0.11
17. TTTTTTGCAT  1.07 ± 0.19
18. TTTTAGGTTT  1.06 ± 0.16
19. GAATATTACC  1.06 ± 0.014
20. AACAACTCTC  1.06 ± 0.017
21. ATGTACTTTA  1.06 ± 0.028
22. TTTTATGTAT  1.06 ± 0.048
23. AATCGCGGTA  1.05 ± 0.033
24. ATAGTAGGTC  1.048 ± 0.0015
25. AATACCGTTT  1.05 ± 0.03
26. AGGCCTGCGG  1.05 ± 0.033
27. CGACTACTTT  1.05 ± 0.031
28. CGAGGGGAGG  1.05 ± 0.028
29. CAGGTGTGGA  1.044 ± 0.0053
30. GGTGTTCAGG  1.042 ± 0.0083
31. CAGTGTACGG  1.04 ± 0.013
32. TTGCGGGGCC  1.04 ± 0.051
33. TACGGAAATG  1.0398 ± 0.00093
34. TTCGCGCGGT  1.04 ± 0.077
35. TAATCACCTA  1.038 ± 0.0093
36. CCTGCTGGCG  1.04 ± 0.12
37. AAAATGCCAC  1.04 ± 0.024
38. GGGGAATCCT  1.036 ± 0.0077
39. TTTAACTTAT  1.03 ± 0.02
40. TTGCCCCTTA  1.03 ± 0.045
41. GCAGATCGAT  1.03 ± 0.015
42. TTCCGTTGGG  1.028 ± 0.0032
43. CCCTTGCGGT  1.03 ± 0.047
44. TTGTGATGGC  1.03 ± 0.11
45. TAGCTGATGT  1.03 ± 0.02
46. CCATGAAAAT  1.029 ± 0.003
47. CCACAGAAAA  1.033 ± 0.006
48. ACTTCATTTT  1.02 ± 0.012
49. GGCGGATGGG  1.02 ± 0.026
50. TGCGTATTTT  1.025 ± 0.0031
51. CCGTTTTGCG  1.02 ± 0.027
52. TTCCAAAAGG  1.02 ± 0.054
53. CAGTTGTTTT  1.02 ± 0.034
54. CGGAGGGGTG  1.02 ± 0.022
55. GCATCAGGGA  1.02 ± 0.035
56. AAGCATAGGG  1.02 ± 0.015
57. CGGTTCTCTC  1.02 ± 0.013
58. TAGGGCTTAG  1.02 ± 0.032
59. GACATTTGGA  1.017 ± 0.0066
60. GGGCCCTTCG  1.018 ± 0.0047
61. GAATGTGACG  1.02 ± 0.013
62. GAATTGAAAA  1.02 ± 0.026
63. TCTGTTTGTT  1.015 ± 0.01
64. GTTTCATATC  1.02 ± 0.047
65. CACAAGTTTT  1.02 ± 0.03
66. GGTTTTTTTC  1.02 ± 0.048
67. TTGAGTGGAG  1.02 ± 0.029
68. GAGGGATGTA  1.01 ± 0.022
69. AAAGTGAGGT  1.01 ± 0.017
70. CCTGGGAGGA  1.012 ± 0.0014
71. ATCAAGACAG  1.01 ± 0.033
72. TTCCGGAAAA  1.01 ± 0.05
73. ACGTAAAAAG  1.01 ± 0.065
74. TGGTAATGTG  1.01 ± 0.096
75. AGAAAGGATG  1.01 ± 0.032
76. TGGGGAACGC  1.01 ± 0.034
77. GGAATCAGGT  1.014 ± 0.0065
78. TAAGAGGGCA  1.01 ± 0.014
79. TGAGGTTGGC  1.01 ± 0.023
80. GACAGTCGGG  1.01 ± 0.024
81. ACCTTGGTGT  1.01 ± 0.053
82. ATTGCTGCGA  1.006 ± 0.0075
83. TAAAAGTTAT  1.01 ± 0.02
84. CAAATTTTTT  1.01 ± 0.02
85. CCTTTAGATT  1.01 ± 0.013
86. CTAGTTTTTA  1.009 ± 0.007
87. GATTAAAAAT  1.0123 ± 0.00055
88. CGAGATTTGT  1.011 ± 0.0097
89. GCATTATCCA  1.01 ± 0.031
90. CAGAGATGTT  1.01 ± 0.032
91. GGGAATGGAT  1.01 ± 0.029
92. TTTTTTACTC  1 ± 0.039
93. TGGATGAAGT  1 ± 0.047
94. GACTATGTTT  1 ± 0.044
95. TCGGGATCGG  1 ± 0.015
96. GAGGGCCTCA  1 ± 0.033
97. AAGGTAAGGT  1 ± 0.023
98. GGTTTCGTTT  1.002 ± 0.0063
99. ATCAGACGGG  1 ± 0.025
100. AAAAAGTATG  1 ± 0.026
101. AAGGTTTCAT  1 ± 0.031
102. GCTTCAGAAA  1 ± 0.066
103. TGGACAGGGT  0.999 ± 0.017
104. TTAAAAGTGT  0.999 ± 0.026
105. TGGGTGAAGG  0.999 ± 0.022
106. TTTTAAGCGG  0.999 ± 0.015
107. TTTCAAGATT  0.998 ± 0.015
108. TATTTTGTAG  0.995 ± 0.019
109. GTGTATATGG  0.995 ± 0.017
110. TTGAGACTCG  0.995 ± 0.019
111. TGAAGATGTG  0.993 ± 0.02
112. GAGTCCCTGA  0.993 ± 0.032
113. CTTTCTTTTT  0.992 ± 0.018
114. AGGCTTTGCA  0.992 ± 0.01
115. TTTGTCAGGG  0.992 ± 0.062
116. AGGTTTATCA  0.991 ± 0.028
117. AGAATGGCAG  0.991 ± 0.029
118. GGGAGGTAGG  0.991 ± 0.01
119. TGGAAGGGTA  0.9903 ± 0.0012
120. TTTATATTTC  0.99 ± 0.046
121. AGTAAGGGCT  0.99 ± 0.015
122. GGGGGGTTGG  0.989 ± 0.031
123. TAGTTTGGTT  0.9887 ± 0.0052
124. GGGGGAACTA  0.989 ± 0.019
125. GGAGACTCAA  0.988 ± 0.016
126. AAGGTAGGCG  0.987 ± 0.011
127. TCTTAGTAGT  0.986 ± 0.028
128. TTTTGAGTT  0.986 ± 0.076
129. ATTTTTGTTA  0.986 ± 0.054
130. TCTTGGACGG  0.985 ± 0.021
131. AACTTCGGTG  0.984 ± 0.014
132. TGGATGATTG  0.984 ± 0.022
133. TCTGGTTTTG  0.984 ± 0.043
134. TCAAGGGAAC  0.9826 ± 0.004
135. GGGTTCAGTG  0.982 ± 0.026
136. TCGGTGGTAA  0.9823 ± 0.0065
137. TTCGGGATCG  0.981 ± 0.057
138. ACTAGGGGCA  0.98 ± 0.036
139. CTCGTTGAGG  0.979 ± 0.032
140. TAAAGACGGG  0.978 ± 0.013
141. AGAAGTGAGC  0.978 ± 0.038
142. TTTATCACGT  0.975 ± 0.0077
143. TGGTACGGTT  0.975 ± 0.015
144. AGAACTAGGG  0.974 ± 0.016
145. TAAGTCGTGG  0.9735 ± 0.0019
146. GTGGGGACAC  0.973 ± 0.036
147. AATGCTCTTC  0.973 ± 0.04
148. ATCGTAGGTT  0.972 ± 0.015
149. GGGAGTTAAA  0.972 ± 0.013
150. TCACTAGAGT  0.9722 ± 0.0053
151. AGGTAGGCGG  0.969 ± 0.055
152. GTGAAAAGGG  0.963 ± 0.038
153. ATTTAGTTCG  0.9606 ± 0.0073
154. CGTTTTTCTT  0.958 ± 0.05
155. GGGTTTTCGT  0.9538 ± 0.0032
156. TTAATCAGAT  0.9533 ± 0.0093
157. GGGTCTTGGG  0.9482 ± 0.008
